Test results as given in the supplement of paper PMC7125110.
± gives the standard error. For some of these results: Fewer inactive variants are shown than the library holds.

B1: glmS ribozyme (parent)
chain: AUAAAAGCGCCAGAACUACAGAAAUGUAGUUGACGAGGAGGAGGUUUAUCGAAUUUUCGGCGGAUGCCUCCAAA

How the values were obtained:
Conditions in all cases: with glucosamine-6-phosphate
glucosamine-6-phosphate [1] = variants of: B1; assay: kcat; higher = faster cleavage; RNA array
Method in brief: (§1)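 The measurements used barcoded ribozyme variants on sequenced MiSeq chips, transcribed in situ by E. coli RNA polymerase and tracked at 37 °C with a hybridised Cy3 probe. Glucosamine-6-phosphate, 40 μM to 10 mM in HEPES/KCl/Mg(OAc)2 buffer, was flowed in while tiles were imaged over ~14 h. Baseline-normalised signals, also normalised to non-cleaving reference variants, gave per-tile medians that were fit to one- or two-exponential decays for kobs. kcat and KM resulted from weighted Michaelis–Menten fits across concentrations.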

glucosamine-6-phosphate [2] = variants of: B1; assay: KM; higher = weaker cofactor use; RNA array
Method in brief: as §1

glucosamine-6-phosphate [3] = variants of: B1; assay: self-cleavage kobs at 640 uM GlcN6P; higher = faster cleavage; RNA array
Method in brief: as §1

glucosamine-6-phosphate [4] = variants of: B1; assay: self-cleavage kobs at 2500 uM GlcN6P; higher = faster cleavage; RNA array
Method in brief: as §1

glucosamine-6-phosphate [5] = variants of: B1; assay: self-cleavage kobs at 10000 uM GlcN6P; higher = faster cleavage; RNA array
Method in brief: as §1

glucosamine-6-phosphate [6] = variants of: B1; assay: self-cleavage kobs at 160 uM GlcN6P; higher = faster cleavage; RNA array
Method in brief: as §1

glucosamine-6-phosphate [7] = variants of: B1; assay: self-cleavage kobs at 40 uM GlcN6P; higher = faster cleavage; RNA array
Method in brief: as §1

| Variant | kcat (glucosamine-6-phosphate [1]) [s⁻¹] | KM (glucosamine-6-phosphate [2]) [mM] | self-cleavage kobs at 640 uM GlcN6P (glucosamine-6-phosphate [3]) [s⁻¹] | self-cleavage kobs at 2500 uM GlcN6P (glucosamine-6-phosphate [4]) [s⁻¹] | self-cleavage kobs at 10000 uM GlcN6P (glucosamine-6-phosphate [5]) [s⁻¹] | self-cleavage kobs at 160 uM GlcN6P (glucosamine-6-phosphate [6]) [s⁻¹] | self-cleavage kobs at 40 uM GlcN6P (glucosamine-6-phosphate [7]) [s⁻¹] |
| --- | --- | --- | --- | --- | --- | --- | --- |
| U31G G66C | 0.000137 ± 2.5e-05 | 1.36 ± 0.59 | 4.89e-05 ± 1.1e-05 | 7.89e-05 ± 1.3e-05 | 0.000146 ± 3.1e-05 |  |  |
| G35A C71G | < 1e-05 |  | < 1e-05 |  |  | < 1e-05 |  |
| U31G C34A G60U C67A | < 1e-05 |  |  |  |  |  |  |
| A36C A64U | 1.13e-05 ± 3.6e-06 |  | < 1e-05 |  |  |  | < 1e-05 |
| G32A U47G | 0.00115 ± 0.0003 | 3.78 ± 1.6 | 0.000142 ± 3e-05 | 0.000687 ± 0.00015 | 0.000806 ± 0.00013 | 5.19e-05 ± 1.5e-05 |  |
| G35U U65A | < 1e-05 |  | < 1e-05 | < 1e-05 |  |  | < 1e-05 |
| G32U U47A | 0.000688 ± 0.00026 |  | 8.3e-05 ± 2e-05 | 0.000375 ± 0.00014 | 0.000493 ± 0.00011 | 5.78e-05 ± 1.8e-05 |  |
| A33U G41U | 2.33e-05 ± 1.9e-06 |  |  | 2.26e-05 ± 8e-06 | 2.14e-05 ± 6.8e-06 | < 1e-05 | < 1e-05 |
| A33C C70G | < 1e-05 |  |  | < 1e-05 | < 1e-05 | < 1e-05 |  |
| G32A U65A | 0.000307 ± 0.0001 |  | 5.66e-05 ± 1.2e-05 | 0.000104 ± 1.4e-05 | 0.000243 ± 4.4e-05 |  |  |
| G32U C67A | 0.000412 ± 4.2e-05 | 4.2 ± 0.78 | 5.83e-05 ± 6.7e-06 | 0.00014 ± 1.6e-05 | 0.000296 ± 2.2e-05 |  |  |
| G35C C58U | < 1e-05 |  | < 1e-05 |  |  | < 1e-05 |  |
| A33U U55C C61A | 1.69e-05 ± 5.1e-06 |  |  |  |  |  |  |
| G32A C67U | 0.000858 ± 0.0002 | 1.94 ± 0.76 | 0.00023 ± 2.1e-05 | 0.000374 ± 4.7e-05 | 0.000854 ± 8.5e-05 | 7.5e-05 ± 1.5e-05 |  |
| C34A G38C | < 1e-05 |  | < 1e-05 |  |  |  |  |
| G32U U49G | 5.32e-05 ± 7.1e-06 |  |  | 4.54e-05 ± 1.2e-05 | 4.7e-05 ± 6.6e-06 |  | < 1e-05 |
| G32U A36U | < 1e-05 |  |  |  | < 1e-05 | < 1e-05 | < 1e-05 |
| U31C G37U G62C A64U C70A | < 1e-05 |  |  |  | < 1e-05 |  | < 1e-05 |
| G32C C50G | 5.17e-05 ± 1.5e-05 |  | 6.25e-05 ± 2e-05 |  |  |  | 4.21e-05 ± 1.5e-05 |

| Variant | kcat (glucosamine-6-phosphate [1]) [s⁻¹] | KM (glucosamine-6-phosphate [2]) [mM] | self-cleavage kobs at 640 uM GlcN6P (glucosamine-6-phosphate [3]) [s⁻¹] | self-cleavage kobs at 2500 uM GlcN6P (glucosamine-6-phosphate [4]) [s⁻¹] | self-cleavage kobs at 10000 uM GlcN6P (glucosamine-6-phosphate [5]) [s⁻¹] | self-cleavage kobs at 160 uM GlcN6P (glucosamine-6-phosphate [6]) [s⁻¹] | self-cleavage kobs at 40 uM GlcN6P (glucosamine-6-phosphate [7]) [s⁻¹] |
| --- | --- | --- | --- | --- | --- | --- | --- |
| U31G G32C | 0.000616 ± 8.5e-05 | 5.52 ± 1.1 | 6.65e-05 ± 1.1e-05 | 0.000186 ± 2.9e-05 | 0.000405 ± 8.2e-05 |  |  |
| G32A U57A | 3.77e-05 ± 3.1e-06 | 3 ± 0.97 |  |  | 2.89e-05 ± 9.1e-06 | < 1e-05 |  |
| U31C G41U | 0.000175 ± 1.4e-05 | 1.35 ± 0.26 | 5.36e-05 ± 1e-05 | 0.000117 ± 1.7e-05 | 0.000153 ± 2e-05 |  |  |
| A33U C61G | < 1e-05 |  |  |  | < 1e-05 |  | < 1e-05 |
| U31G G62U C71G | < 1e-05 |  |  |  |  |  |  |
| A36C C58A | 1.11e-05 ± 3.9e-06 |  |  |  |  |  | < 1e-05 |
| G32A G41U | 0.000608 ± 0.00022 |  | 5.48e-05 ± 9e-06 | 0.000125 ± 2e-05 | 0.00037 ± 5.5e-05 |  |  |
| C34U G43A | < 1e-05 |  |  |  |  | < 1e-05 | < 1e-05 |
| A36G U54G | < 1e-05 |  |  |  |  |  | < 1e-05 |
| A33U A39C | 1.74e-05 ± 2.5e-06 | 3.65 ± 1.6 |  |  |  |  |  |
| A33G C71A | < 1e-05 |  |  |  | < 1e-05 | < 1e-05 | < 1e-05 |
| U31C U65A | 0.000435 ± 5.4e-05 | 2 ± 0.48 | 0.000114 ± 1.8e-05 | 0.000217 ± 3.2e-05 | 0.000385 ± 5.2e-05 | 3.17e-05 ± 1.3e-05 |  |
| U31G G41C | 0.000172 ± 3.9e-05 |  |  | 0.000167 ± 3.6e-05 | 0.000139 ± 2.2e-05 |  |  |
| U31G A33C | 3.39e-05 ± 1.6e-06 | 4.18 ± 0.65 |  |  | 2.4e-05 ± 8.6e-06 |  |  |
| U31G A33U | 0.000102 ± 8.8e-06 | 4.09 ± 0.91 |  | 3.73e-05 ± 1.2e-05 | 7.23e-05 ± 1.2e-05 |  |  |
| U31G G40U | 0.00241 ± 0.0003 | 2.73 ± 0.5 | 0.000515 ± 5.8e-05 | 0.00119 ± 0.00013 | 0.00183 ± 0.0002 | 0.000115 ± 1.6e-05 | 3.85e-05 ± 7.6e-06 |
| U31G G40A | 0.00279 ± 0.00072 | 1.46 ± 0.56 | 0.000715 ± 0.00014 | 0.0018 ± 0.00027 | 0.00301 ± 0.00099 | 0.000269 ± 5.2e-05 | 0.00011 ± 2.4e-05 |
| G32C G37C | < 1e-05 |  |  |  | < 1e-05 |  | < 1e-05 |
